Literature values in publication PMC12172581.

Molecular target: Nterm1 (UniProt position 672, SEVKMDAEFRH)
Assay: potentiometry
Settings: apo (metal-free) peptide

Substance: Amyloid-beta peptide (Abeta1-40, as tabulated) (Homo sapiens)
- pKa: 8.0
